Measured values taken from the supplement of paper PMC6757056.
± gives the standard deviation of the averaged measurements.

B1: library; a variant is named by its letters at N, in order (parent)
chain: GCUGUCACCGGAAUACCAGCAUCGUCUUGAUGCCCUUGGAAGUCCGGUCUGAUGAGUCCNNNNNGGACGAAACAGC

Key:
[1] = variants of: B1; assay: FACS-Seq fitted mean relative fluorescence mCherry/BFP without ligand (log10 relative fluorescence); higher = higher reporter protein expression; conditions: HEK293T, ligand present: no
Outline: (§1)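 Fluorescence values are fitted normal means of bin counts along the mCherry/BFP axis. HEK293T libraries lentivirally carrying the ribozyme switch in an mCherry reporter, with an EF1α-BFP marker, were enriched, exposed to ligand or not for 48 h, and sorted into 6 bins. Genomic DNA per bin was PCR-amplified, barcoded and run on MiSeq. Means of log10(mCherry/BFP) were scaled to five spiked-in control ribozymes.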

[2] = variants of: B1; assay: normalized RNA/DNA level with ligand (relative to sTRSVctl = 100) (log10 (% of sTRSVctl)); higher = less ribozyme self-cleavage, higher mRNA level; conditions: ligand concentration (+) RNA-Seq: 5 mM, HEK293T, reporter: mCherry (pCS4076), ligand present: yes
Outline: (§2)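 Ribozyme switch library plasmids linked to reporters were introduced into HEK293T cells at 4 µg per 6-well well, with ligand, if any, added 1 h before. Total RNA was extracted with EDTA 72 h later, reverse-transcribed, amplified, barcoded and sequenced. RNA level was computed from RNA over DNA reads relative to a spiked-in non-cleaving sequence or the top sequences, then scaled and log-transformed. The top set was 25 sequences, values were ×100 and log10, and the cutoff was ≥100 DNA reads.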

[3] = variants of: B1; assay: normalized RNA/DNA level without ligand (relative to sTRSVctl = 100) (log10 (% of sTRSVctl)); higher = less ribozyme self-cleavage, higher mRNA level; conditions: HEK293T, reporter: mCherry (pCS4076), ligand present: no
Outline: as §2

[4] = variants of: B1; assay: FACS-Seq fitted mean relative fluorescence mCherry/BFP with ligand (log10 relative fluorescence); ligand concentration (+) FACS-Seq: 1 mM; higher = higher reporter protein expression; conditions: HEK293T, ligand present: yes
Outline: as §1

Variant	FACS-Seq fitted mean (log10) [1]	normalized RNA/DNA level with ligand (log10) [2]	normalized RNA/DNA level without ligand (log10) [3]	FACS-Seq fitted mean (log10) [4]
UCCAU	1.01 ± 0.016	2.012 ± 0.019	1.96 ± 0.054	1.05 ± 0.11
ACUAU	0.418 ± 0.065	1.982 ± 0.019	1.84 ± 0.13	0.461 ± 0.041
AAACG	0.558 ± 0.061	2 ± 0.03	1.84 ± 0.12	0.652 ± 0.062
CCCCA	0.614 ± 0.038	2.043 ± 0.0071	1.9 ± 0.11	0.52 ± 0.035
GAACG	1.01 ± 0.081	1.89 ± 0.14	1.793 ± 0.015	1.03 ± 0.028
AUCAC	0.845 ± 0.16	1.98 ± 0.022	1.96 ± 0.068	0.786 ± 0.039
ACCAC	1.02 ± 0.038	2 ± 0.055	2.006 ± 0.014	0.984 ± 0.066
CAGGC	0.86 ± 0.039	2.06 ± 0.046	1.95 ± 0.03	0.813 ± 0.041
AGUGA	0.239 ± 0.055	2 ± 0.0061	1.38 ± 0.17	0.535 ± 0.0085
CAGCC	0.864 ± 0.054	2 ± 0.035	1.97 ± 0.025	0.846 ± 0.13
CAUUA	0.275 ± 0.06	1.851 ± 0.011	1.22 ± 0.14	0.761 ± 0.12
UGCCC	0.979 ± 0.077	2.01 ± 0.026	2.03 ± 0.043	0.875 ± 0.012
AACAC	0.834 ± 0.025	1.94 ± 0.048	1.91 ± 0.075	0.925 ± 0.089
CGAGA	0.788 ± 0.0071	1.93 ± 0.022	1.58 ± 0.18	0.841 ± 0.032
AGGAA	0.0559 ± 0.0084	1.85 ± 0.12	1.17 ± 0.079	0.552 ± 0.029
UACCC	0.622 ± 0.13	2.02 ± 0.026	2.04 ± 0.048	0.599 ± 0.045
GAUCG	1.12 ± 0.081	1.9 ± 0.031	1.78 ± 0.05	1.17 ± 0.094
UUUAA	0.514 ± 0.017	2.05 ± 0.08	1.69 ± 0.019	0.695 ± 0.019
CCCCC	0.942 ± 0.16	2.0303 ± 0.00068	1.97 ± 0.032	0.862 ± 0.091
CAACC	1.06 ± 0.065	1.91 ± 0.059	1.994 ± 0.0033	1.02 ± 0.03
GAUCU	0.704 ± 0.15	1.98 ± 0.055	1.85 ± 0.03	0.81 ± 0.17
GCAAU	1.11 ± 0.06	1.96 ± 0.017	1.78 ± 0.027	1.06 ± 0.046
UGCCU	0.875 ± 0.16	2.08 ± 0.077	1.891 ± 0.007	0.867 ± 0.079
AUUAU	0.905 ± 0.075	2.01 ± 0.021	1.88 ± 0.097	0.861 ± 0.095

Variant	FACS-Seq fitted mean (log10) [1]	normalized RNA/DNA level with ligand (log10) [2]	normalized RNA/DNA level without ligand (log10) [3]	FACS-Seq fitted mean (log10) [4]
CGCGA	0.995 ± 0.15	1.97 ± 0.12	1.767 ± 0.014	0.923 ± 0.055
AGACA	0.0301 ± 0.062	1.87 ± 0.04	1.72 ± 0.031	0.35727 ± 0.0003
AAGUA	0.448 ± 0.1	2 ± 0.064	1.63 ± 0.12	0.35 ± 0.062
AUAUU	0.891 ± 0.015	2.05 ± 0.067	1.91 ± 0.024	0.928 ± 0.12
AUCAA	1.02 ± 0.047	1.95 ± 0.084	1.68 ± 0.12	1.15 ± 0.083
GCGAU	0.428 ± 0.072	1.96 ± 0.025	1.7 ± 0.18	0.549 ± 0.1
AGGAC	0.549 ± 0.067	1.97 ± 0.089	1.81 ± 0.12	0.721 ± 0.074
AUGUG	0.254 ± 0.065	1.96 ± 0.097	1.87 ± 0.029	0.295 ± 0.11
GAAUU	0.234 ± 0.038	2.02 ± 0.045	1.75 ± 0.018	0.4307 ± 0.002
AACGC	0.98544 ± 0.00052	2.135 ± 0.0047	1.94 ± 0.072	0.922 ± 0.023
CUGAA	0.3855 ± 0.0027	2.006 ± 0.0026	1.317 ± 0.0043	0.763 ± 0.15
UACGC	0.81 ± 0.14	2.01 ± 0.038	1.98 ± 0.17	0.916 ± 0.039
CCGGU	0.937 ± 0.27	1.97 ± 0.064	1.84 ± 0.064	0.944 ± 0.14
UUAUC	1.09 ± 0.15	2.04 ± 0.049	1.96 ± 0.16	1.19 ± 0.12
UAAGA	-0.11 ± 0.071	1.9752 ± 0.00034	1.48 ± 0.16	0.22 ± 0.072
GCCCU	1.072 ± 0.0027	1.97 ± 0.025	1.98 ± 0.057	0.918 ± 0.027
GUGAU	-0.224 ± 0.019	2 ± 0.12	1.66 ± 0.024	-0.0667 ± 0.046
UGCGA	0.439 ± 0.02	1.9 ± 0.039	1.58 ± 0.06	0.659 ± 0.03
UCCGA	0.81 ± 0.1	2.12 ± 0.14	1.946 ± 0.0097	0.6689 ± 0.002
GAUGU	0.101 ± 0.097	1.88 ± 0.052	1.71 ± 0.099	0.375 ± 0.068
ACAGA	0.413 ± 0.11	1.96 ± 0.064	1.54 ± 0.035	0.638 ± 0.062
ACUAG	1.14 ± 0.18	2 ± 0.067	2.01 ± 0.043	1.08 ± 0.11
AAUGG	0.773 ± 0.076	2.06 ± 0.078	1.73 ± 0.094	0.962 ± 0.016
GAUAU	0.781 ± 0.093	1.946 ± 0.0078	1.75 ± 0.039	0.8102 ± 0.0061

Variant	FACS-Seq fitted mean (log10) [1]	normalized RNA/DNA level with ligand (log10) [2]	normalized RNA/DNA level without ligand (log10) [3]	FACS-Seq fitted mean (log10) [4]
CAGAC	0.2 ± 0.032	2.04 ± 0.028	1.9 ± 0.086	0.0728 ± 0.14
AAGCG	0.683 ± 0.068	2 ± 0.075	1.96 ± 0.067	0.7793 ± 0.0014
UUCGU	0.93 ± 0.0046	2.08 ± 0.14	2.02 ± 0.059	0.939 ± 0.067
UACUA	0.959 ± 0.069	1.97 ± 0.11	1.67 ± 0.042	1.05 ± 0.071
CGCAU	0.678 ± 0.078	1.99 ± 0.018	1.68 ± 0.14	0.776 ± 0.017
GUAAA	0.745 ± 0.13	1.982 ± 0.016	1.7 ± 0.045	0.936 ± 0.11
AGGGA	0.303 ± 0.0048	2.04 ± 0.079	1.48 ± 0.1	0.659 ± 0.029
AGAGA	0.056 ± 0.00013	1.952 ± 0.0099	1.28 ± 0.092	0.603 ± 0.011
UUUAC	0.968 ± 0.059	2.06 ± 0.073	1.98 ± 0.066	0.808 ± 0.084
AUGCG	0.848 ± 0.14	1.99 ± 0.11	1.87 ± 0.06	0.986 ± 0.1
UCUUU	0.989 ± 0.015	2.019 ± 0.0067	1.86 ± 0.14	1.04 ± 0.1
CAAUC	0.844 ± 0.034	1.94 ± 0.053	1.83 ± 0.13	0.825 ± 0.014
UGUGC	0.71 ± 0.038	2.04 ± 0.047	1.93 ± 0.086	0.652 ± 0.0049
ACGUC	1.11 ± 0.098	1.99 ± 0.031	1.91 ± 0.038	1.1245 ± 0.0011
AUAUG	0.794 ± 0.14	1.99 ± 0.045	1.8 ± 0.087	0.981 ± 0.043
GACGG	0.642 ± 0.057	1.93 ± 0.045	1.71 ± 0.11	0.887 ± 0.096
ACGCU	0.995 ± 0.016	2.08 ± 0.17	1.914 ± 0.019	1.01 ± 0.031
AAUUU	0.603 ± 0.084	1.98 ± 0.021	1.915 ± 0.0083	0.6371 ± 0.0013
UCGCC	1.03 ± 0.1	2 ± 0.095	1.872 ± 0.014	1.06 ± 0.095
ACCCU	0.718 ± 0.011	2.023 ± 0.016	1.93 ± 0.091	0.587 ± 0.09
AAGUC	0.771 ± 0.032	1.96 ± 0.045	1.91 ± 0.1	0.866 ± 0.079
CCCCU	0.771 ± 0.094	2 ± 0.042	1.951 ± 0.01	0.807 ± 0.053
CUUAC	0.44 ± 0.11	2.04 ± 0.065	1.95 ± 0.15	0.194 ± 0.17
